Reference: US20260069689A1 (Regeneron, published 2026)
Read-outs that look alike come from different tables or passages of the source.

What was measured:
SARS-COV-2 RBD-MMH [1] = molecular target: SARS-COV-2 RBD-MMH (SARS-CoV-2); test: SPR 37C
[2] = molecular target: T1, human FcγR3a 176Val allotype receptor (human, UniProt P08637 17-254); test: cell-based or functional assay
SARS-COV-2 RBD-MMH [3] = molecular target: SARS-COV-2 RBD-MMH (SARS-CoV-2); test: SPR 37C, run with dissociation at pH 5.0
SARS-COV-2 RBD-MMH [4] = molecular target: SARS-COV-2 RBD-MMH (SARS-CoV-2); test: SPR 37C, run with dissociation at pH 7.4
[5] = molecular target: T1, human FcγR3a 176Val allotype receptor; test: cell-based or functional assay; remark: listed apart in the source

| Binder | t½ Ratio of pH 7.4 to pH 5.0 (SARS-COV-2 RBD-MMH [1]) | EC50 (M), Jurkat/CD20/spike [2] | Fold induction, Jurkat CD20 [2] | Fold induction, Jurkat/CD20/spike [2] | RBD.mmh Bound at pH 7.4 (RU) (SARS-COV-2 RBD-MMH [3]) | koff (SARS-COV-2 RBD-MMH [3]) | t½ (SARS-COV-2 RBD-MMH [3]) | RBD.mmh Bound at pH 7.4 (RU) (SARS-COV-2 RBD-MMH [4]) | koff (SARS-COV-2 RBD-MMH [4]) | EC50 (M), Jurkat/CD20/spike [5] | Fold induction, Jurkat CD20 [5] | Fold induction, Jurkat/CD20/spike [5] |
| --- | --- | --- | --- | --- | --- | --- | --- | --- | --- | --- | --- | --- |
| mAb14315 (antibody) heavy: not shown light: EIVLTQSPGTLSLSPGERATLSCRASQSVSSNYLAWYQQKPGQAPRLLIYGASSRATGIPERFSGSGSGTDFTLTISRLEPEDFAVYYCQQYGSSLYTFGQGTKLEIKRTVAAPSVFIFPPSDEQLKSGTASVVCLLNNFYPREAKVQWKVDNALQSGNSQESVTEQDSKDSTYSLSSTLTLSKADYEKHKVYACEVTHQGLSSPVTKSFNRGEC | 0.7 | 6.24e-11 M | 1.1 fold | 9.3 fold | 101 RU | 0.0007 s⁻¹ | 16.5 min | 83.3 RU | 0.00098 s⁻¹ | – | – | – |
| mAb14257 (antibody) heavy: not shown light: QSVLTQPPSVSGAPGQRVTISCTGTSSNIGADFDVHWYQQFPGTAPKLLIYGHTNRPSGIPDRFSGSKSGTSASLAITGLQAEDEADYYCQSYDSSLSGSVVFGGGTKLTVLGQPKAAPSVTLFPPSSEELQANKATLVCLISDFYPGAVTVAWKADSSPVKAGVETTTPSKQSNNKYAASSYLSLTPEQWKSHRSYSCQVTHEGSTVEKTVAPTECS | 2.1 | 2.39e-10 M | 1 fold | 8.8 fold | 45.2 RU | 0.0172 s⁻¹ | 0.7 min | 82.3 RU | 0.00778 s⁻¹ | 2.63e-10 M | 1.2 fold | 2.2 fold |
| mAb14255 (antibody) heavy: not shown light: QSALTQPASVSGSPGQSITISCTGTSSDVGSYNLVSWYQQHPGKAPKLMIYEDSKRPSGVANPFSGSKSGNTASLTISGLQAEDEADYYCSSYAGSSTWVFGGGTKLTVLGQPKAAPSVTLFPPSSEELQANKATLVCLISDFYPGAVTVAWKADSSPVKAGVETTTPSKQSNNKYAASSYLSLTPEQWKSHRSYSCQVTHEGSTVEKTVAPTECS | 1.3 | 1.67e-10 M | 1 fold | 9.5 fold | 94.1 RU | 0.00635 s⁻¹ | 1.8 min | 97.5 RU | 0.00493 s⁻¹ | 1.88e-10 M | 1.1 fold | 3.2 fold |
| mAb14256 (antibody) heavy: not shown light: QSVLTQPPSVSGAPGQRVTISCTGSSSNIGTHYDVHWYQQLPGTAPKLLIYGNSNRPSGVPDRFSGSKSGTSASLAITGLQAEDEADYYCQSFDNSLTAPYVFGTGTKVTVLGQPKAAPSVTLFPPSSEELQANKATLVCLISDFYPGAVTVAWKADSSPVKAGVETTTPSKQSNNKYAASSYLSLTPEQWKSHRSYSCQVTHEGSTVEKTVAPTECS | 0.8 | 4.48e-10 M | 1 fold | 6.1 fold | 54.1 RU | 0.00927 s⁻¹ | 1.2 min | 80.2 RU | 0.0111 s⁻¹ | 5.75e-10 M | 1.1 fold | 2 fold |
